The record followed here is paper PMC4822561, “Structure of a quinolone-stabilized cleavage complex of topoisomerase IV from Klebsiella pneumoniae and comparison with a related Streptococcus pneumoniae complex” (Acta Crystallographica. Section D, Structural Biology, 2016).

The labels stand for the following.
B1: S. pneumoniae topoisomerase IV ParE30 (domain or fragment)
chain: KNKKDKGLLSGKLTPAQSKNPAKNELYLVEGDSAGGSAKQGRDRKFQAILPLRGKVINTAKAKMADILKNEEINTMIYTIGAGVGADFSIEDANYDKIIIMTDADTDGAHIQTLLLTFFYRYMRPLVEAGHVYIALPPLYKMSKGKGKKEEVAYAWTDGELEELRKQFGKGATLQRYKGLGEMNADQLWETTMNPETRTLIRVTIEDLARAERRVNVLMGDKVEPRRKWIEDNVKFTLEEATVF
notes: ParE TOPRIM domain (ParE30), S. pneumoniae isolate 7785 (St George's Hospital); the limits fit the printed Glu474 and Glu475; also called ParE C-terminal domain; ParE TOPRIM domain; source: E. coli BL21(λDE3) pLysS, pET-19b (N-terminal His10); purification protocol in the Supporting Information
B2: S. pneumoniae topoisomerase IV ParC55 (domain or fragment)
chain: MSNIQNMSLEDIMGERFGRYSKYIIQDRALPDIRDGLKPVQRRILYSMNKDSNTFDKSYRKSAKSVGNIMGNFHPHGDSSIYDAMVRMSQNWKNREILVEMHGNNGSMDGDPPAAMRYTEARLSEIAGYLLQDIEKKTVPFAWNFDDTEKEPTVLPAAFPNLLVNGSTGISAGYATDIPPHNLAEVIDAAVYMIDHPTAKIDKLMEFLPGPDFPTGAIIQGRDEIKKAYETGKGRVVVRSKTEIEKLKGGKEQIVITEIPYEINKANLVKKIDDVRVNNKVAGIAEVRDESDRDGLRIAIELKKDANTELVLNYLFKYTDLQINYNFNMVAIDNFTPRQVGIVPILSSYIAHRREVILARSRFDKEKAEKRLHIVEGLIRVISILDEVIALIRASENKADAKENLKVSYDFTEEQAEAIVTLQLYRLTNTDVVVLQEEEAELREKIAMLAAIIGDERTMYNLMKKELREVKKKFATPRLSSLEDTAKALE
notes: ParC breakage-reunion domain (ParC55), S. pneumoniae isolate 7785 (St George's Hospital); two residues between ParC and the His6 tag; also called ParC N-terminal domain; ParC subunit; source: E. coli BL21(λDE3) pLysS, pET-29a (C-terminal His6); purification protocol in the Supporting Information
B3: K. pneumoniae topoisomerase IV ParC breakage-reunion domain (ParC55; residues 1–490) (domain or fragment, K. pneumoniae (strain ATCC 35657))
chain: MSDMAERLALHEFTENAYLNYSMYVIMDRALPFIGDGLKPVQRRIVYAMSELGLNASAKFKKSARTVGDVLGKYHPHGDSACYEAMVLMAQPFSYRYPLGDGQGNWGAPDDPKSFAAMRYTESRLSKYAELLLSELGQGTVDWVPNFDGTLQEPKMLPARLPNILLNGTTGIAVGMATDIPPHNLREVAKAAITLIEQPKTTLDELLDIVQGPDFPTEAEIITSRAEIRKIYQNGRGSVRMRAVWSKEDGAVVITALPHQVSGAKVLEQIAAQMRNKKLPMVDDLRDESDHENPTRLVIVPRSNRVDMEQVMNHLFATTDLEKSYRINLNMIGLDGRPAVKNLLEILSEWLVFRRDTVRRRLNHRLEKVLKRLHILEGLLVAFLNIDEVIEIIRTEDEPKPALMSRFGISETQAEAILELKLRHLAKLEEMKIRGEQSELEKERDQLQAILASERKMNNLLKKELQADADAFGDDRRSPLHEREEAKAMS
notes: ParC breakage-reunion domain (ParC55), K. pneumoniae strain ATCC 35657, residues 1-490; In the crystal this stretch was joined on one chain with ParE 390-631 (see m1: M-ParE(390-631)-EF-ParC(1-490)-His6); written alone for the pair rows; also called ParC NTD 1–490; ParC subunit; source: E. coli BL21(λDE3) pLysS, pET-29a; purification protocol in the Supporting Information

In data set [1] the target is B2. Kind of data set: crystal structure; S. pneumoniae ParC55:ParE30:18-mer E-site DNA 1:1:1.2 at 4 mg/ml, 2 mM levofloxacin, 10 mM MgCl2; capillary counter-diffusion, 304 K; 2.9 Å, space group P3(1)21. To be noted: both partners purified.
Data set [2] concerns the molecule itself. The data set is described as above.
Data set [3] concerns the molecule itself. As to the kind of experiment: crystal structure; K. pneumoniae ParE-ParC fusion (4.5 mg/ml) co-crystallised with pre-cut 34-mer E-site DNA (1:1.2 protein:DNA), 2 mM levofloxacin, 10 mM MgCl2; vapour diffusion, 298 K; 3.35 Å, space group P2(1).

As for B1, the binding result in data set [1] is reported as “binds”.

On to B2, for which, in data set [2], the binding result was “binds”.

A word on the stoichiometry N: it is the number of molecules, sites or subunits per partner or assembly. Take B3: in data set [3], the “stoichiometry N” value is 2.
